In publication PMC12325948, “14-3-3 binding maintains the Parkinson’s associated kinase LRRK2 in an inactive state” (Nature Communications, 2025):

Experiments:
[1] = biological target: Flag-tagged LRRK2 WT expressed in HEK293FT cells (human) (UniProt Q5S007); assay: co-IP; HEK293FT cells transfected with WT or mutant Flag-tagged LRRK2, FLAG-M2 resin, elution with 3X-FLAG peptide, blot with anti-pan-14-3-3; ratio of endogenous 14-3-3 to LRRK2; in one panel cells treated with MLi-2 or Rebastinib
[2] = biological target: LRRK2 mutants at the secondary interface (COR residues) in the Co-IP of Fig. 2d; assay: as above
[3] = biological target: Flag-tagged LRRK2 R1728H expressed in HEK293FT cells (human) (UniProt Q5S007); assay: as above
[4] = biological target: N-terminal His-tagged 14-3-3γ (Uniprot P61981) (UniProt P61981); assay: MST; details: parent: est. 210 nM, read off a plot
[5] = biological target: Full-length human LRRK2 (Uniprot Q5S007 with R85H mutation), N-terminal 3X-FLAG, purified (human) (UniProt Q5S007); assay: SEC + other: mass photometry; LRRK2 dimers isolated by gel filtration and confirmed by mass photometry
[6] = biological target: endogenous 14-3-3 (detected with anti-pan-14-3-3) (UniProt P61981); assay: Co-IP
[7] = biological target: Full-length human LRRK2 (Uniprot Q5S007 with R85H mutation), N-terminal 3X-FLAG, purified, Q5S007; assay: MST; details: chain shown with the change; right graph; 14-3-3 Variants; parent: est. 210 nM; read off a plot
[8] = biological target: Purified LRRK2 R1441G (human), Q5S007
[9] = biological target: Purified LRRK2 R1728H (human), Q5S007
[10] = biological target: Purified LRRK2 R1628P (human), Q5S007
[11] = biological target: Purified LRRK2 mutated at the secondary interaction residue L1727 (human), Q5S007
[12] = biological target: Purified LRRK2 mutated at the secondary interaction residue N1730 (human), Q5S007
[13] = biological target: Purified LRRK2 mutated at the secondary interaction residue R1728 (mutant with reduced inhibition) (human), Q5S007
[14] = biological target: Full-length human LRRK2 (Uniprot Q5S007 with R85H mutation), N-terminal 3X-FLAG, purified (human) (UniProt Q5S007); assay: MST; as a3 with the type I kinase inhibitor MLi-2 at 2 uM
[15] = biological target: Purified LRRK2 mutated at the primary interaction residues S910/S935 (human) (UniProt Q5S007)
[16] = biological target: Full-length human LRRK2 (Uniprot Q5S007 with R85H mutation), N-terminal 3X-FLAG, purified (human) (UniProt Q5S007); assay: cryo-EM structure; LRRK2 monomer fraction at 50 mM NaCl with at least 60-fold molar excess of 14-3-3γ, cross-linked with 1 mM BS3, Superose 6; map at 3.96 Å, local refinement 3.87 Å
[17] = biological target: Full-length human LRRK2 (Uniprot Q5S007 with R85H mutation), N-terminal 3X-FLAG, purified (human) (UniProt Q5S007); assay: MST; LRRK2 labelled with RED-NHS 2nd generation at 40 nM, 14-3-3 titrated from a 485 µM stock in 1:2 dilutions, 25 °C for 1 h, 1:1 binding model
[18] = biological target: Purified LRRK2 mutants on the LRRK2 side of the COR:14-3-3_(2) interface (MST, Fig. 2e right); assay: as above
[19] = biological target: Full-length human LRRK2 (Uniprot Q5S007 with R85H mutation), N-terminal 3X-FLAG, purified (human) (UniProt Q5S007)
[20] = biological target: Full-length human LRRK2 (Uniprot Q5S007 with R85H mutation), N-terminal 3X-FLAG, purified (human) (UniProt Q5S007); assay: SEC-MALS; pre-formed dimeric LRRK2 at 130 nM without and with 14-3-3γ at 1 to 100 times that of LRRK2, Superose 6 Increase 15/150, gel filtration buffer
[21] = biological target: the molecule itself; assay: cryo-EM structure; LRRK2 monomer fraction at 50 mM NaCl with at least 60-fold molar excess of 14-3-3γ, cross-linked with 1 mM BS3, Superose 6; map at 3.96 Å, local refinement 3.87 Å
[22] = in cells, n = 3, parent: est. 1.0, read off a plot
[23] = left graph, Flag-tagged LRRK2 and endogenous 14-3-3, n = 3, parent: est. 1.0, read off a plot
[24] = right graph, Flag-tagged LRRK2 and endogenous 14-3-3, n = 3, parent: est. 1.0, read off a plot

Full-length human LRRK2 (Uniprot Q5S007 with R85H mutation), N-terminal 3X-FLAG, purified, Q5S007, sequence (Q5S007 other isoform, or with tags, fused parts or gaps R85H): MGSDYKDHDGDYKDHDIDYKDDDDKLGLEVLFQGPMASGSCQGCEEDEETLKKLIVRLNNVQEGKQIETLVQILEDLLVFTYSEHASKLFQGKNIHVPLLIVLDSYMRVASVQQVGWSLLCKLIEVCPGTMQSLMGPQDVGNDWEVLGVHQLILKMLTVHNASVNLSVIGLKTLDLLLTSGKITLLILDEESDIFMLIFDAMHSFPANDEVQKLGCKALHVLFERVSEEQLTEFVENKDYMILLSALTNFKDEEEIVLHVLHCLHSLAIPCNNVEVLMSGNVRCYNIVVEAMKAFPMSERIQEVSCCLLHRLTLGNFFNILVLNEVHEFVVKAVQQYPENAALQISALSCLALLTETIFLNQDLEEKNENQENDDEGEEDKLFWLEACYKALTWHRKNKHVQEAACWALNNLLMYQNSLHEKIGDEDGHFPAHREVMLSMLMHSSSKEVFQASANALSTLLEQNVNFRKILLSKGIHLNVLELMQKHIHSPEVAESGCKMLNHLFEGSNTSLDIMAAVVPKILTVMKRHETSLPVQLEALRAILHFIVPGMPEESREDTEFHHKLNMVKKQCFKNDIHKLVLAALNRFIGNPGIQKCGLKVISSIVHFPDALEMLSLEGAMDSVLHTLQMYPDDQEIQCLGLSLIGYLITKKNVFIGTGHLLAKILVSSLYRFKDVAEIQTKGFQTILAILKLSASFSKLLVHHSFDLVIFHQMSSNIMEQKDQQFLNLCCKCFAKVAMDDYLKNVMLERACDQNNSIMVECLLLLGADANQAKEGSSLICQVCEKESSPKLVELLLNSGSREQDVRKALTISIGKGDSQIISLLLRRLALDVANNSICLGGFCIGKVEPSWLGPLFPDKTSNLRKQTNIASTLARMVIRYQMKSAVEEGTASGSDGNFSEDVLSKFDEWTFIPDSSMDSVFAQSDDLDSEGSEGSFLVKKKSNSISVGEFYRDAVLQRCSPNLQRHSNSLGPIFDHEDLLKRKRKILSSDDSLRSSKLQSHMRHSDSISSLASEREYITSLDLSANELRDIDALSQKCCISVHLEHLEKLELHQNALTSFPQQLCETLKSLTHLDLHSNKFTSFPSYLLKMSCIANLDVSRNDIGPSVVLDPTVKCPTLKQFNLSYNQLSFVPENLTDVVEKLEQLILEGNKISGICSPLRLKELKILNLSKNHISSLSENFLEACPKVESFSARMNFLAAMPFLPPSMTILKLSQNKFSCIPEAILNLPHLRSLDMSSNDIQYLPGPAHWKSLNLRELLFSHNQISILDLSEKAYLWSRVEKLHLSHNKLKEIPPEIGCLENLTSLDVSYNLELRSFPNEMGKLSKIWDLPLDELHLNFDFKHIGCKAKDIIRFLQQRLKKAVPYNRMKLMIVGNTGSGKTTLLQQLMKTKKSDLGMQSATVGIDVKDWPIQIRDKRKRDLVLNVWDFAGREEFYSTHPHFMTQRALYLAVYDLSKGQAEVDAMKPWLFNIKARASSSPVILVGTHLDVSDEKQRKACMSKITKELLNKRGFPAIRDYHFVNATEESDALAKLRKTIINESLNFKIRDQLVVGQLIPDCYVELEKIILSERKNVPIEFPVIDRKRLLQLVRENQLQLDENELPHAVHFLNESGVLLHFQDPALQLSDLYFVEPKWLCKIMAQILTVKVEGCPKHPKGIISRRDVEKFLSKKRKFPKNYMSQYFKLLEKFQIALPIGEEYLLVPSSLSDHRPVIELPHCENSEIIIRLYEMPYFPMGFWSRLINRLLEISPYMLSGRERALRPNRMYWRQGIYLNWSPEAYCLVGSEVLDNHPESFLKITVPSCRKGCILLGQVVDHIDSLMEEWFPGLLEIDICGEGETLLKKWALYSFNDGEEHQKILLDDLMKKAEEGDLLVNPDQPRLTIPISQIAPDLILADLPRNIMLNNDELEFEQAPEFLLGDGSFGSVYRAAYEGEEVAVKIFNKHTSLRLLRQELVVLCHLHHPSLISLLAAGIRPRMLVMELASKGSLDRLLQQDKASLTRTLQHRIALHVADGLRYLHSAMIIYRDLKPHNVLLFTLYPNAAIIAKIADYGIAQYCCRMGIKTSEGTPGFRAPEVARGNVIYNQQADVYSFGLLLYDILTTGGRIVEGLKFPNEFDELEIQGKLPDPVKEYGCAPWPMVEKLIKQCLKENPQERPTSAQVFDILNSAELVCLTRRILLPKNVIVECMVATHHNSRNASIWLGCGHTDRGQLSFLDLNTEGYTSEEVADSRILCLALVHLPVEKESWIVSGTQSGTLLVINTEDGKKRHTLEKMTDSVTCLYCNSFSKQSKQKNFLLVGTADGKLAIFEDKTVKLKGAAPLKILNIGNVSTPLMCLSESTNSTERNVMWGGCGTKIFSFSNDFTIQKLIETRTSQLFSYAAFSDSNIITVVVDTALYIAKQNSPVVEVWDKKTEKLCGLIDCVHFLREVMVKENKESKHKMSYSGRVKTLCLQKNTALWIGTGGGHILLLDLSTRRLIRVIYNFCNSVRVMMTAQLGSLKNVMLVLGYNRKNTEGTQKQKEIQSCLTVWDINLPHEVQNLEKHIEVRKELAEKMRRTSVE
Purified LRRK2 mutated at the primary interaction residues S910/S935 (human), sequence (Q5S007 whole entry S910A/S935A): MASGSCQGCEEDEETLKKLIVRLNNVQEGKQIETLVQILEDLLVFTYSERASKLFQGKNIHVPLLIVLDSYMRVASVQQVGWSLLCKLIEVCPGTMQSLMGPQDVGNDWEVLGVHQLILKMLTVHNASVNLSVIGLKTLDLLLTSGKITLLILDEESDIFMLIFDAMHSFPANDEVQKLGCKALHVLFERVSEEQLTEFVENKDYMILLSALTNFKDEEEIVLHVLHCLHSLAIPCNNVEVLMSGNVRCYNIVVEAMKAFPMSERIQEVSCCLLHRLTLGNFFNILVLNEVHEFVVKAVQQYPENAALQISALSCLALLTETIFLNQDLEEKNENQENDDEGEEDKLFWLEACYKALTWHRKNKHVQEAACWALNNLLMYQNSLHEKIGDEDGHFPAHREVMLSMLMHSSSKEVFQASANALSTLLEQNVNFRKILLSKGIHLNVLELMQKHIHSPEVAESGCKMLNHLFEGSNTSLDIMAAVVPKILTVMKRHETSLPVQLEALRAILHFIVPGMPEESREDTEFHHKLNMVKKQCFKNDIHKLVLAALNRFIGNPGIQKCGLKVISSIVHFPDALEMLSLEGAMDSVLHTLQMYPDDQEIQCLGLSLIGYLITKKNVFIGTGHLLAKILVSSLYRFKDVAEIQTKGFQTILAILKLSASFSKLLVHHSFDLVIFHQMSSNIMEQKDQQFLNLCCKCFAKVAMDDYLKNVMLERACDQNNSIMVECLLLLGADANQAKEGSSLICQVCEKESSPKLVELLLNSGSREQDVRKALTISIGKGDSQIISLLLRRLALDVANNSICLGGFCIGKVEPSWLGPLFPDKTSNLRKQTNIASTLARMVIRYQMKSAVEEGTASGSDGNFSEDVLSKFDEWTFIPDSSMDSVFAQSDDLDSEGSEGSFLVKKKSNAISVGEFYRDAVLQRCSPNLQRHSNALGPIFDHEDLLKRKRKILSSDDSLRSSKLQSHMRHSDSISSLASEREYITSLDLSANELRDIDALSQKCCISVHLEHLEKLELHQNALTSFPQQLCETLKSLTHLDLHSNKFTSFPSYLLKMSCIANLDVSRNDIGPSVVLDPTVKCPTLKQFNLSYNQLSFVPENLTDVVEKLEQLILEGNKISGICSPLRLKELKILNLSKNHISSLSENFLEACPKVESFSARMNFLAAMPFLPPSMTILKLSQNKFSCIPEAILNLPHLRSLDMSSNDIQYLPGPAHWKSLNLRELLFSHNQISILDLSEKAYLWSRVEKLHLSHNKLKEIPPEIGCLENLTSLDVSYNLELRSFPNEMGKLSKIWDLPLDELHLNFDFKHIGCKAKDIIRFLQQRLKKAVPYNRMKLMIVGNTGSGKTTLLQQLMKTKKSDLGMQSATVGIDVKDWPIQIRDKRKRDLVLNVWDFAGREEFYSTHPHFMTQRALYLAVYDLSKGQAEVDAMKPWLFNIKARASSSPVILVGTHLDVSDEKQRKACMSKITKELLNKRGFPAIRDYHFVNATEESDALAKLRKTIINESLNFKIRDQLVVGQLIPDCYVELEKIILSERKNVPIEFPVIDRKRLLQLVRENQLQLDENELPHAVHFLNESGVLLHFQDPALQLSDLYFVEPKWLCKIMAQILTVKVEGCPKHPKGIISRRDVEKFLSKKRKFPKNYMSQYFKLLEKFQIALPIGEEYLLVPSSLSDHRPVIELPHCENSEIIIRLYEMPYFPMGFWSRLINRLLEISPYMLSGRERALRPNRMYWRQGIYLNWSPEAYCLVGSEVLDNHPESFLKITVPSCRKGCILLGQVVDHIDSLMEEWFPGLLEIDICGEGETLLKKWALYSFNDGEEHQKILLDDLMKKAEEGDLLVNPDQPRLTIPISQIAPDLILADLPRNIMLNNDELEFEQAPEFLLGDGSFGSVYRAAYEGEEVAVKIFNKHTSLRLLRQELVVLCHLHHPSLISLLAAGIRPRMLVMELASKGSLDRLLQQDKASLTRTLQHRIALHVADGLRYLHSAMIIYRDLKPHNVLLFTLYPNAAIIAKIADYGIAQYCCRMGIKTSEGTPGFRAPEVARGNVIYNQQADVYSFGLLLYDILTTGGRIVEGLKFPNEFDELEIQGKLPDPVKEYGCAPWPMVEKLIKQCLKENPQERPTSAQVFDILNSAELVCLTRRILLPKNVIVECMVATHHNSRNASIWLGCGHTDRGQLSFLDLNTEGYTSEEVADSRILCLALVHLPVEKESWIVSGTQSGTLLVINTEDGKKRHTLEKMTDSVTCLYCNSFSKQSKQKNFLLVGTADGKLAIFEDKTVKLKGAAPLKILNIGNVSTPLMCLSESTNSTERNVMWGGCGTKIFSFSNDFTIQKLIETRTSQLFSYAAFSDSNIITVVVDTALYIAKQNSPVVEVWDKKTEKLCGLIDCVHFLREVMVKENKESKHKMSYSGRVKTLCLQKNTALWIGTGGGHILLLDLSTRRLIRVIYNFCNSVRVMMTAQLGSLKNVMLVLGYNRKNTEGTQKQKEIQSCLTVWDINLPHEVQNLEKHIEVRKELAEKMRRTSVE
Purified LRRK2 mutated at the secondary interaction residue R1728 (mutant with reduced inhibition) (human), Q5S007, sequence (Q5S007 whole entry, stated change not applied): as the sequence (Q5S007 whole entry S910A/S935A) above, with A910S, A935S counted along it
Purified LRRK2 mutated at the secondary interaction residue L1727 (human), Q5S007, sequence (Q5S007 whole entry, change not shown): as the sequence (Q5S007 whole entry S910A/S935A) above, with A910S, A935S counted along it

endogenous 14-3-3 (detected with anti-pan-14-3-3) (from UniProt P61981 1-247) (natural protein)
fold decrease in co-immunoprecipitated 14-3-3 after treatment of the cells with MLi-2 [1]: 7 fold | fold decrease in co-immunoprecipitated 14-3-3 [2]: 2 to 13 fold | percent reduction in binding against WT [2]: 40 to 90% | percent decrease in binding relative to WT [3]: 50%

Full-length human LRRK2 (Uniprot Q5S007 with R85H mutation), N-terminal 3X-FLAG, purified, Q5S007 S910A; S935A
Kd ([4]; left graph, bar labelled S910/S935A): 230000 nM

Full-length human LRRK2 (Uniprot Q5S007 with R85H mutation), N-terminal 3X-FLAG, purified (from UniProt Q5S007 1-2527) (enzyme)
stoichiometry N [5]: 2

Full-length human LRRK2 (Uniprot Q5S007 with R85H mutation), N-terminal 3X-FLAG, purified, Q5S007 L1727A
Kd ([4]; right graph, LRRK2 Variants): 470 nM

Full-length human LRRK2 (Uniprot Q5S007 with R85H mutation), N-terminal 3X-FLAG, purified, Q5S007 R1728A
Kd ([4]; right graph, LRRK2 Variants): 560 nM

Flag-tagged LRRK2 WT expressed in HEK293FT cells, Q5S007 G2019S
ratio to parent [6, 22]: 1.5

Flag-tagged LRRK2 WT expressed in HEK293FT cells, Q5S007 E1632A
ratio to parent [6, 23]: 0.07

Flag-tagged LRRK2 WT expressed in HEK293FT cells, Q5S007 R1441G
ratio to parent [6, 22]: 0.07

Flag-tagged LRRK2 WT expressed in HEK293FT cells, Q5S007 S1636A
ratio to parent [6, 23]: 0.54

Flag-tagged LRRK2 WT expressed in HEK293FT cells, Q5S007 N1730A
ratio to parent [6, 24]: 0.18

Flag-tagged LRRK2 WT expressed in HEK293FT cells, Q5S007 R1628P
ratio to parent [6, 22]: 1.6

Flag-tagged LRRK2 WT expressed in HEK293FT cells, Q5S007 L1635A
ratio to parent [6, 23]: 0.11

Flag-tagged LRRK2 WT expressed in HEK293FT cells, Q5S007 S910A; S935A
ratio to parent [6, 22]: 0.02 | ratio to parent [6, 23]: 0.03 | ratio to parent [6, 24]: 0.01

Flag-tagged LRRK2 WT expressed in HEK293FT cells, Q5S007 R1728A
ratio to parent ([6]; right graph, Flag-tagged LRRK2 and endogenous 14-3-3, n = 3, marked ns against WT, parent: est. 1.0, read off a plot): 0.98

Flag-tagged LRRK2 WT expressed in HEK293FT cells, Q5S007 L1727A
ratio to parent [6, 24]: 0.63

B1: N-terminal His-tagged 14-3-3γ (Uniprot P61981), P61981 Y216A (protein)
chain: MVDREQLVQKARLAEQAERYDDMAAAMKNVTELNEPLSNEERNLLSVAYKNVVGARRSSWRVISSIEQKTSADGNEKKIEMVRAYREKIEKELEAVCQDVLSLLDNYLIKNCSETQYESKVFYLKMKGDYYRYLAEVATGEKRATVVESSEKAYSEAHEISKEHMQPTHPIRLGLALNYSVFYYEIQNAPEQACHLAKTAFDDAIAELDTLNEDSAKDSTLIMQLLRDNLTLWTSDQQDDDGGEGNN
Kd [7]: 680 nM

B2: N-terminal His-tagged 14-3-3γ (Uniprot P61981), P61981 Q224A (protein)
chain: MVDREQLVQKARLAEQAERYDDMAAAMKNVTELNEPLSNEERNLLSVAYKNVVGARRSSWRVISSIEQKTSADGNEKKIEMVRAYREKIEKELEAVCQDVLSLLDNYLIKNCSETQYESKVFYLKMKGDYYRYLAEVATGEKRATVVESSEKAYSEAHEISKEHMQPTHPIRLGLALNYSVFYYEIQNAPEQACHLAKTAFDDAIAELDTLNEDSYKDSTLIMALLRDNLTLWTSDQQDDDGGEGNN
Kd [7]: 490 nM

B3: N-terminal His-tagged 14-3-3γ (Uniprot P61981), P61981 R227A (protein)
chain: MVDREQLVQKARLAEQAERYDDMAAAMKNVTELNEPLSNEERNLLSVAYKNVVGARRSSWRVISSIEQKTSADGNEKKIEMVRAYREKIEKELEAVCQDVLSLLDNYLIKNCSETQYESKVFYLKMKGDYYRYLAEVATGEKRATVVESSEKAYSEAHEISKEHMQPTHPIRLGLALNYSVFYYEIQNAPEQACHLAKTAFDDAIAELDTLNEDSYKDSTLIMQLLADNLTLWTSDQQDDDGGEGNN
Kd [7]: 640 nM

B4: N-terminal His-tagged 14-3-3γ (Uniprot P61981), P61981 1-247 (natural protein)
chain: MVDREQLVQKARLAEQAERYDDMAAAMKNVTELNEPLSNEERNLLSVAYKNVVGARRSSWRVISSIEQKTSADGNEKKIEMVRAYREKIEKELEAVCQDVLSLLDNYLIKNCSETQYESKVFYLKMKGDYYRYLAEVATGEKRATVVESSEKAYSEAHEISKEHMQPTHPIRLGLALNYSVFYYEIQNAPEQACHLAKTAFDDAIAELDTLNEDSYKDSTLIMQLLRDNLTLWTSDQQDDDGGEGNN
reduction of the 14-3-3 mediated inhibition of LRRK2 kinase activity [8]: 30% | reduction of the inhibition of LRRK2 kinase activity by 14-3-3 compared to WT [9]: 20% | reduction of the inhibition of LRRK2 kinase activity by 14-3-3 compared to WT [10]: 20% | inhibition of Rab10 phosphorylation by LRRK2 in an in vitro kinase assay, 14-3-3 at 300 µM [11]: 25% | inhibition of Rab10 phosphorylation by LRRK2 in an in vitro kinase assay, 14-3-3 at 300 µM [12]: 25% | inhibition of Rab10 phosphorylation by LRRK2 in an in vitro kinase assay, 14-3-3 at 300 µM [13]: 25%

B5: N-terminal His-tagged 14-3-3γ (Uniprot P61981) (natural protein, human)
chain: MVDREQLVQKARLAEQAERYDDMAAAMKNVTELNEPLSNEERNLLSVAYKNVVGARRSSWRVISSIEQKTSADGNEKKIEMVRAYREKIEKELEAVCQDVLSLLDNYLIKNCSETQYESKVFYLKMKGDYYRYLAEVATGEKRATVVESSEKAYSEAHEISKEHMQPTHPIRLGLALNYSVFYYEIQNAPEQACHLAKTAFDDAIAELDTLNEDSYKDSTLIMQLLRDNLTLWTSDQQDDDGGEGNN
notes: 14-3-3γ, Uniprot P61981; A TEV site follows the His tag; no cleavage is described; also called 14-3-3 gamma; 14-3-3 dimer; source: E. coli BL21*(DE3), purified (Ni-NTA, Superdex 75)
fold decrease in binding affinity with MLi-2 against no inhibitor [14]: 2 fold | inhibition of Rab10 phosphorylation by LRRK2 in an in vitro kinase assay, 14-3-3 at 300 µM [15]: 25% | stoichiometry N (14-3-3 dimer per LRRK2 monomer) [16]: 1 | Kd [17]: 212 nM | fold increase in KD against the wild-type pair [18]: 2 to 3 fold | inhibition of Rab10 phosphorylation by LRRK2 in an in vitro kinase assay, 14-3-3 from 0 to 300 µM [19]: 50% | stoichiometry N (14-3-3γ dimer per LRRK2 dimer) [20]: 1 | stoichiometry N [21]: 2
